Data from publication PMC5835687, “Great Cause—Small Effect: Undeclared Genetically Engineered Orange Petunias Harbor an Inefficient Dihydroflavonol 4-Reductase” (Frontiers in Plant Science, 2018).

What was measured:
[1] = substrate: O=C1c2c(O)cc(O)cc2O[C@H](c2cc(O)c(O)c(O)c2)[C@H]1O; experiment: purified protein; details: NADPH-dependent reduction; labelled compound
[2] = substrate: O=C1c2c(O)cc(O)cc2O[C@H](c2ccc(O)c(O)c2)[C@H]1O; experiment: DFR enzyme assay, radiolabelled substrate, as previously described; type: biochemical, Zea mays; details: NADPH-dependent reduction; labelled compound

Row | Protein | Km [1] [µM] | kcat [1] [s⁻¹] | Km [2] [µM] | kcat [2] [s⁻¹]
1 | recombinant A1 protein (maize DFR) (Zea mays) (protein, full-length A1 cDNA in pGEX-6P-1, GST fusion from E. coli, GST tag removed, purified; A1 CDS 1,074 bp) MERGAGASEKGTVLVTGASGFVGSWLVMKLLQAGYTVRATVRDPANVGKTKPLMDLPGATERLSIWKADLAEEGSFHDAIRGCTGVFHVATPMDFLSKDPENEVIKPTVEGMISIMRACKEAGTVRRIVFTSSAGTVNLEERQRPVYDEESWTDVDFCRRVKMTGWMYFVSKTLAEKAALAYAAEHGLDLVTIIPTLVVGPFISASMPPSLITALALITGNAPHYSILKQVQLIHLDDLCDAEIFLFENPAAAGRYVCSSHDVTIHGLAAMLRDRYPEYDVPQRFPGIQDDLQPVRFSSKKLQDLGFTFRYKTLEDMFDAAIRTCQEKGLIPLATAAGGDGFASVRAPGETEATIGA | 3.1 | 0.87 | 2.9 | 0.70
2 | recombinant PhDFR (Petunia × hybrida DFR) (Petunia x hybrida) (protein) MASEAVHAPSPPVAVPTVCVTGAAGFIGSWLVMRLLERGYNVHATVRDPENKKKVKHLLELPKADTNLTLWKADLTVEGSFDEAIQGCQGVFHVATPMDFESKDPENEVIKPTVRGMLSIIESCAKANTVKRLVFTSSAGTLDVQEQQKLFYDQTSWSDLDFIYAKKMTGWMYFASKILAEKAAMEEAKKKNIDFISIIPPLVVGPFITPTFPPSLITALSLITGNEAHYCIIKQGQYVHLDDLCEAHIFLYEHPKADGRFICSSHHAIIYDVAKMVREKWPEYYVPTEFKGIDKDLPVVSFSSKKLTDMGFQFKYTLEDMYKGAIDTCRQKQLLPFSTRSAEDNGHNREAIAISAQNYASGKENAPVANHTEMLSNVEV | 1.3 | 2.14 |  | 
